Read-outs that look alike come from different tables or passages of the source. Blank lines part the entries; values can stand above or below the binder they belong to.
What was measured:
[1] = target: T1, human PVRIG-mFc protein (Acro, PVG-H5253) (human, UniProt Q6DKI7 41-171, limits assumed); assay: HTRF competition, PVRIG-mFc with Bio-CD112-His as competitor
T1 construct: extracellular domain; Bought protein; also called PVRIG-ECD-mFc; not shown: mouse Fc tag of the bought protein
T1 sequence (looked up): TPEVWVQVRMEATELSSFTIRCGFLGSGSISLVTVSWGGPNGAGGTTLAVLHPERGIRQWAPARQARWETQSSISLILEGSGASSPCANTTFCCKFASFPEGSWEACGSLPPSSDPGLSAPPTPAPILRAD
Description: (§1) PVRIG-mFc (ACRO Biosystems, Cat NO. PVG-H5253) and Bio-CD112-His (Sino Biological, Cat NO. 10005-H08H) were diluted to 0.5 μg/mL, respectively. Streptavidin-Tb cryptate (Cisbio) and PAb anti mouse IgG-XL665 (Cisbio) were diluted to 20 μg/mL and 0.8 μg/mL, respectively. The tested antibodies were diluted from the initial concentration of 120 nM, by 3-fold serial dilution for 12 concentration points. The diluted PVRIG-mFc, Bio-CD112-His, Streptavidin-Tb Crytate and PAb anti mouse IgG-XL665 were mixed at 1:1:1:1, and added into a 384-well plate (PE, Cat NO. 6007299), 10 μL/well. 10 μL/well of serially diluted antibodies was added into wells, centrifuged at 1500 rpm for 30s, and incubated at 37° C. for 1 hour. The plate was read on the microplate reader (PE, Envision2105) with wavelengths of 665 nm and 620 nm. […] A Four Parameter Logistic Fit was performed with the molar concentration of the antibodies as the abscissa and Ratio as the ordinate to calculate IC50. The smaller the IC50, the better the effect of the antibody block the binding of PVRIG to PVRL2. The positive controls in this experiment are COM701-hIgG1, PVRIG-A50-H1b and PVRIG-A105-H1; and the negative control antibody is anti-Fluorescein-hIgG1 (in house). The effect of 4 humanized bispecific antibodies blocking the binding of PVRIG to PVRL2 is shown in FIG. 51 and Tables 44 and 45. […] The blocking effect of LC-BsAb-002 is better than its corresponding monoclonal antibody (PVRIG-A50-H1b) and the positive control (COM701-hIgG1). The blocking effect of LC-BsAb-006 is better than its corresponding monoclonal antibody (PVRIG-A50-H1b), but slightly weaker than the positive control (COM701-hIgG1). The blocking effects of LC-BsAb-009 and LC-BsAb-010 are not as good as their corresponding monoclonal antibodies (PVRIG-A105-H1) and the positive control (COM701-hIgG1).

[2] = target: T1, human PVRIG-mFc protein (Acro, …); assay: FACS blocking of PVRIG-mFc binding to CHO-K1-CD112 cells; competitor CD112
Outline: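 Zombie violet-stained CHO-K1-CD112 cells were added for 30 min at 4° C, then PE goat anti-mouse IgG Fc (1:250) was applied and mean fluorescence intensity read on a BD Canto II. Curves were fitted with four-parameter logistic models in GraphPad Prism 9. IC50 and curve AUC were reported as percentages of the reference antibody values.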

[3] = target: T2, human PVRIG (AcroBiosystems, Cat NO. PVG-H52H4) (human, UniProt Q6DKI7 41-171, limits assumed); assay: ELISA, coated human PVRIG
T2 construct: Bought protein with His tag; also called human PVRIG-his; human PVRIG protein
T2 sequence (looked up): T1 sequence (looked up)
Description: (§2) The ELISA plate was pre-coated with 50 μL/well of 1.0 μg/mL human PVRIG (AcroBiosystems, Cat NO. PVG-H52H4) or 50 μL/well of 0.5 μg/mL cynomolgus monkey PVRIG (Novoprotein, Cat NO. C09B). The tested antibodies were serially diluted (initial concentration 13 nM, 3-fold serial dilution, 12 concentration points), added into the plate (50 μL/well) and incubated at 37° C. for 2.0 hours. After washing the plate, the Goat anti-human IgG Fc-HRP (Merck, Cat NO. AP113P) working solution (dilution ratio 1:5000, 50 μL/well) were added into wells and incubated at 37° C. for 1.0 hour. A HRP substrate, TMB (KPL, Cat NO. 5120-0077) was added into wells after washing the plate again and incubated at 37° C. for 10 minutes for color development. After adding a termination solution to terminate the reaction, the absorbance value was read by a microplate reader (PE, Ensight-HH3400). An antibody binding curve was drawn with molar concentration of antibodies as the abscissa and the corresponding OD value as the ordinate. The EC50 value was calculated by using a Four Parameter Logistic Fit (GraphPadPrism9). […] The positive control antibodies are COM701-hIgG1, PVRIG-A50-H1b and PVRIG-A105-H1; and the negative control antibodies are anti-Fluorescein-hIgG1 (in house). The binding results of the 4 humanized bispecific antibodies to human PVRIG protein are shown in FIG. 41 and Tables 40 and 41, and the binding results to cynomolgus monkey PVRIG are shown in FIG. 42 and Tables 40 and 41. […] The binding of LC-BsAb-002 and LC-BsAb-006 to human PVRIG protein is slightly weaker than that of the corresponding monoclonal antibody (PVRIG-A50-H1b) and the positive control (COM701-hIgG1).

[4] = target: T3, cynomolgus monkey PVRIG (Novoprotein, Cat NO. C09B) (cynomolgus monkey, UniProt A0A2K5WVV8 41-171); assay: ELISA, coated cynomolgus PVRIG
T3 construct: Bought protein; construct not described; also called cynomolgus monkey PVRIG protein
T3 sequence: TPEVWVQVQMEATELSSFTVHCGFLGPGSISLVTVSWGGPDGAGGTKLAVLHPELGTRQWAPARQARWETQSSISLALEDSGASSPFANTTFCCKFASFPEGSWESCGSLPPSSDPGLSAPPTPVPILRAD
Description: as §2

[5] = target: T3, cynomolgus monkey PVRIG (Novoprotein, …); assay: ELISA, coated cynomolgus PVRIG; remark: listed apart in the source
Description: (§3) The ELISA plate was pre-coated with 50 μL/well of 1.0 μg/mL human PVRIG (AcroBiosystems, Cat NO. PVG-H52H4) or 50 μL/well of 0.5 μg/mL cynomolgus monkey PVRIG (Novoprotein, Cat NO. C09B). The tested antibodies were serially diluted (initial concentration 13 nM, 3-fold serial dilution, 12 concentration points), added into the plate (50 μL/well) and incubated at 37° C. for 2.0 hours. After washing the plate, the Goat anti-human IgG Fc-HRP (Merck, Cat NO. AP113P) working solution (dilution ratio 1:5000, 50 μL/well) were added into wells and incubated at 37° C. for 1.0 hour. A HRP substrate, TMB (KPL, Cat NO. 5120-0077) was added into wells after washing the plate again and incubated at 37° C. for 10 minutes for color development. After adding a termination solution to terminate the reaction, the absorbance value was read by a microplate reader (PE, Ensight-HH3400). An antibody binding curve was drawn with molar concentration of antibodies as the abscissa and the corresponding OD value as the ordinate. The EC50 value was calculated by using a Four Parameter Logistic Fit (GraphPadPrism9). The smaller the EC50 value, the stronger the ability of the antibodies binds to human or cynomolgus monkey PVRIG. The positive control antibodies are COM701-hIgG1, PVRIG-A50-H1b and PVRIG-A105-H1; and the negative control antibodies are anti-Fluorescein-hIgG1 (in house). The binding results of the 4 humanized bispecific antibodies to human PVRIG protein are shown in FIG. 41 and Tables 40 and 41, and the binding results to cynomolgus monkey PVRIG are shown in FIG. 42 and Tables 40 and 41. […] The binding of LC-BsAb-002 and LC-BsAb-006 to human PVRIG protein is slightly weaker than that of the corresponding monoclonal antibody (PVRIG-A50-H1b) and the positive control (COM701-hIgG1).

[6] = target: T1, human PVRIG-mFc protein (Acro, …); assay: HTRF competition, PVRIG-mFc with Bio-CD112-His as competitor; remark: listed apart in the source
Description: as §1

[7] = target: T2, human PVRIG (AcroBiosystems, Cat NO. …); assay: ELISA, coated human PVRIG; remark: listed apart in the source
Description: as §3

% relative activity COM701-hIgG1/tested antibody [1]: 66.7%
% relative activity PVRIG-A50-H1b/tested antibody [1]: 100%
IC50 [1]: 0.206 nM
% AUC to COM701-hIgG4 [2]: 104%
% AUC to SO35-hIgG1 [2]: 61.6%
% AUC to parental Ab [2]: 85.5%
% IC50 to COM701-hIgG4 [2]: 95.2%
% IC50 to SO35-hIgG1 [2]: 73.7%
% IC50 to parental Ab [2]: 81.4%
% relative activity COM701-hIgG1/tested antibody [3]: 65.4%
% relative activity PVRIG-A50-H1b/tested antibody [3]: 100%
EC50 [3]: 0.379 nM
% relative activity COM701-hIgG1/tested antibody [4]: 95.5%
% relative activity PVRIG-A50-H1b/tested antibody [4]: 100%
EC50 [4]: 0.038 nM
B1: PVRIG-A50-H1b (Fc fusion)
chain: EVQLVESGGGLVQPGGSLRLSCAASGFTFSYYDMSWVRQAPGKGLEWVSTINSDGGRTSYVDSVKGRFTISRDNSKNTLYLQMNSLRAEDTAVYYCVEGDPHNFGLESLSLRDFGSWGQGTMVTVSS
notes: VHH-human IgG1 Fc format is stated for the parental VHH antibodies; not restated for the humanized variants; also called A50.VH1b; not shown: human IgG1 hinge-CH2-CH3 (Fc)

% relative activity COM701-hIgG1/tested antibody [5]: 152%
% relative activity PVRIG-A105-H1/tested antibody [5]: 100%
EC50 [5]: 0.0239 nM
% AUC to COM701-hIgG4 [2]: 111%
% AUC to SO35-hIgG1 [2]: 64.2%
% AUC to parental Ab [2]: 97.9%
% IC50 to COM701-hIgG4 [2]: 104%
% IC50 to SO35-hIgG1 [2]: 88.1%
% IC50 to parental Ab [2]: 99.7%
% relative activity COM701-hIgG1/tested antibody [6]: 107%
% relative activity PVRIG-A105-H1/tested antibody [6]: 100%
IC50 [6]: 0.128 nM
% relative activity COM701-hIgG1/tested antibody [7]: 390%
% relative activity PVRIG-A105-H1/tested antibody [7]: 100%
EC50 [7]: 0.0636 nM
B2: PVRIG-A105-H1 (Fc fusion)
chain: EVQLVESGGGLVQPGGSLRLSCAASGRTFDRHTMSWFRQAPGKEREFVATASRIPGDTYYVDSVKGRFTISRDNAKNSLYLQMNSLRAEDTAVYYCAATSAYCSEVDCYEKGSWYDNWGQGTMVTVSS
notes: VHH-human IgG1 Fc format is stated for the parental VHH antibodies; not restated for the humanized variants; also called A105.VH1; not shown: human IgG1 hinge-CH2-CH3 (Fc)

% relative activity COM701-hIgG1/tested antibody [1]: 100%
% relative activity PVRIG-A50-H1b/tested antibody [1]: 150%
IC50 [1]: 0.137 nM
% relative activity COM701-hIgG1/tested antibody [5]: 100%
% relative activity PVRIG-A105-H1/tested antibody [5]: 66%
EC50 [5]: 0.0363 nM
% relative activity COM701-hIgG1/tested antibody [6]: 100%
% relative activity PVRIG-A105-H1/tested antibody [6]: 93.4%
IC50 [6]: 0.137 nM
% relative activity COM701-hIgG1/tested antibody [7]: 100%
% relative activity PVRIG-A105-H1/tested antibody [7]: 25.6%
EC50 [7]: 0.248 nM
% relative activity COM701-hIgG1/tested antibody [3]: 100%
% relative activity PVRIG-A50-H1b/tested antibody [3]: 153%
EC50 [3]: 0.248 nM
% relative activity COM701-hIgG1/tested antibody [4]: 100%
% relative activity PVRIG-A50-H1b/tested antibody [4]: 105%
EC50 [4]: 0.0363 nM
B3: COM701-hIgG1 (antibody, V domains shown)
VH: QVQLVQSGAEVKKPGASVKVSCKASGYTFTDYNINWVRQAPGQGLEWMGYIYPYIGGSGYAQKFQGRVTMTRDTSTSTVYMELSSLRSEDTAVYYCAREDKTARNAMDYWGQGTLVTVSS
VL: DIQMTQSPSSLSASVGDRVTITCRVSENIYSNLAWYQQKPGKAPKLLIYEATNLAEGVPSRFSGSGSGTDFTLTISSLQPEDFATYYCQHFWGTPYTFGQGTKLEIK
notes: Anti-PVRIG positive control
